As a reminder, the EC50 is the concentration at which the effect is half-maximal. Broadly, the Kd is the free concentration of one partner at which half of the binding sites on the other are occupied at equilibrium, for simple one-to-one binding. A word on the koff: it is the first-order rate constant of dissociation. A word on the kon: it is the second-order rate constant of association.

The record followed here is patent US20250179196A1 (Janssen / Centocor, published 2025).

Assay [1] concerns the target T1, human IL-23R expressed on the cell surface of stably transfected iLite and HEK cell lines (human, UniProt Q5VWK5 24-629).
T1 construct: whole, on cells; Same receptor on two transfected cell lines; the cell line is named under assay; also called human IL-23R iLite cells; human IL-23R HEK cells
T1 sequence (looked up): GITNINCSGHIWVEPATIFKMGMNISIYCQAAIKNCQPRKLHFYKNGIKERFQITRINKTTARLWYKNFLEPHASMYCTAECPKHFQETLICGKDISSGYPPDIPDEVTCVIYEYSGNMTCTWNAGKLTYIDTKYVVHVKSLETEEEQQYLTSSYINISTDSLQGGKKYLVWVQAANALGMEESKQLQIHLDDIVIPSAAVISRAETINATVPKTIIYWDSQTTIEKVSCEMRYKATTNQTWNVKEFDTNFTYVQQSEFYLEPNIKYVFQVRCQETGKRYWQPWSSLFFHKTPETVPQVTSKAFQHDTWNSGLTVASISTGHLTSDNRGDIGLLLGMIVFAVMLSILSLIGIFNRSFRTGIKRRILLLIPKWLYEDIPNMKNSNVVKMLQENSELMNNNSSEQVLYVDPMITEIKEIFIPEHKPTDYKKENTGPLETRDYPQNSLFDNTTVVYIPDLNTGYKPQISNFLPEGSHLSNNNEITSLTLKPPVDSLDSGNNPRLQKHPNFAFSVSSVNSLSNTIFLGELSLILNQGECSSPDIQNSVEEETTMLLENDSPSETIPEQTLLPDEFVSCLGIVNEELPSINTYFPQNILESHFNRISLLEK
Nature of the assay: flow cytometry on human IL-23R HEK cells, Expt E (11-point, 384well). The method, boiled down:
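Antibody bound to HEK-IL-23R cells 30 min at 37 °C over 11 concentrations; after washes, Sytox Green added and cells run on iQue. Geometric MFI of 647 detection antibody on single viable cells fitted by variable-slope dose–response.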
On the technique in general: In flow cytometry, cells or beads pass a laser one at a time.

The target of assay [2] is T1, human IL-23R expressed on the cell …. Nature of the assay: flow cytometry on human IL-23R iLite cells, Expt A (1-point). Here is the method:
Human IL-23R iLiTe cell single concentration mAb Binding. Anti-IL-23R mouse IgG₂ₐ mAbs derived from phage panning were tested for binding to human IL-23R expressing iLiTe cells, where a PE conjugated anti mouse secondary antibody detected mAbs bound to the receptor on the cells. […] The next day 100,000 cells were added to each well of a 96 well V bottom plate (Costar, Catalog #3357), centrifuged at 450× gravity for 2 minutes, and then supernatants were decanted. […] Antibodies diluted to 3 μg/mL in Stain Buffer (BSA) (BD Pharmagen, Catalog #554657) were added at 100 μL/well and incubated on ice for 50 minutes, then plates were centrifuged and supernatants were decanted. […] Cells were washed by adding 100 μL/well of Stain Buffer followed by centrifugation and decanting of the supernatants. Cells were resuspended in 100 μL/well of Stain Buffer and analyzed on the Becton Dickenson LSR II FACS instrument with HTS module. Data was analyzed using FlowJo software (Treestar) to obtain geometric mean fluorescence intensities.

Assay [3] has the same target. Nature of the assay: flow cytometry on human IL-23R iLite cells, Expt C (12-point), Gate 1 + 2. Here is the method: (§1) Human IL-23R iLiTe cell concentration response mAb binding. […] The next day 100,000 cells were added to each well of a 96 well V bottom plate (Costar, Catalog #3357), centrifuged at 450× gravity for 2 minutes, and then supernatants were decanted. Antibodies were diluted in Stain Buffer (BSA) (BD Pharmagen, Catalog #554657) and added at 50 μL/well, and mixed. Plates were incubated on ice for 50 minutes, then plates were centrifuged and supernatants were decanted. […] Cells were washed by adding 200 μL/well of Stain Buffer followed by centrifugation and decanting of the supernatants. Cells were resuspended in 100 μL/well of Stain Buffer, transferred in quadruplicate to a 384 well plate (Greiner, Catalog #781281) and analyzed on the Becton Dickenson LSR II FACS instrument with HTS module. Data was analyzed using FlowJo software (Treestar) to obtain geometric mean fluorescence intensities, and geometric mean fluorescence intensities were plotted over log mAb concentrations fitted with a sigmoidal dose response curve with variable slope using GraphPad Prism.

Assay [4] shares this target. Nature of the assay: flow cytometry on human IL-23R iLite cells, Expt C (12-point), Gate 2. Here is the method: as §1
Assay [5] has the same target. Nature of the assay: flow cytometry on human IL-23R iLite cells, Expt B (1-point). Here is the method:
Human IL-23R iLiTe cell single concentration mAb Binding. Anti-IL-23R mouse IgG₂ₐ mAbs derived from phage panning were tested for binding to human IL-23R expressing iLiTe cells, where a PE conjugated anti mouse secondary antibody detected mAbs bound to the receptor on the cells. […] The next day 100,000 cells were added to each well of a 96 well V bottom plate (Costar, Catalog #3357), centrifuged at 450× gravity for 2 minutes, and then supernatants were decanted. […] Cells were washed by adding 100 μL/well of Stain Buffer followed by centrifugation and decanting of the supernatants. Cells were resuspended in 100 μL/well of Stain Buffer and analyzed on the Becton Dickenson LSR II FACS instrument with HTS module. Data was analyzed using FlowJo software (Treestar) to obtain geometric mean fluorescence intensities.

In assay [6] the target is T2, Recombinant human IL-23 receptor (IL-23R) extracellular domain (ECD) protein (human, UniProt Q5VWK5 24-355).
T2 construct: also called human IL-23R ECD; hu IL-23R ECD
T2 sequence: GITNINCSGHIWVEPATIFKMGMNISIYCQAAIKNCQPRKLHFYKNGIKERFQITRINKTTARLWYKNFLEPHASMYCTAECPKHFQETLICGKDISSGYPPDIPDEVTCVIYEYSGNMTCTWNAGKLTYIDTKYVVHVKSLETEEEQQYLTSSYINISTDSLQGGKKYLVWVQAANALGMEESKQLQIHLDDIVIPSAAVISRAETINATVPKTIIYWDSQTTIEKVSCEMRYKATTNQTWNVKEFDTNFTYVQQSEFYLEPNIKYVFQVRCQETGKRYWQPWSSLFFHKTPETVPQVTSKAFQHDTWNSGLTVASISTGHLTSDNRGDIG
Nature of the assay: SPR Biacore 8K, supernatant, analysis 2. In a few lines: (§2)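 Antibodies (~150 RU) were captured and human or rat IL-23R ECD injected at 0.8–500 nM in 5-fold steps, at 25 °C in HBS-P+ with 100 μg/ml BSA. Association ran 3 min at 50 μL/min, followed by 30 min dissociation. Ka, Kd and KD came from a Langmuir 1:1 fit.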

Assay [7] concerns the target T2, Recombinant human IL-23 receptor …. Nature of the assay: SPR Biacore 8K, supernatant, analysis 1. The method, boiled down:
as §2
(In general: SPR reads the build-up and loss of mass on a sensor chip optically.)

The target in assay [8] is T3, human IL-23R on the cell surface (human, UniProt Q5VWK5 24-629).
T3 construct: whole, on cells; also called cell surface human IL-23R; IL-23R on iLite cells, HEK-IL-23R cells and primary human immune cells
T3 sequence (looked up): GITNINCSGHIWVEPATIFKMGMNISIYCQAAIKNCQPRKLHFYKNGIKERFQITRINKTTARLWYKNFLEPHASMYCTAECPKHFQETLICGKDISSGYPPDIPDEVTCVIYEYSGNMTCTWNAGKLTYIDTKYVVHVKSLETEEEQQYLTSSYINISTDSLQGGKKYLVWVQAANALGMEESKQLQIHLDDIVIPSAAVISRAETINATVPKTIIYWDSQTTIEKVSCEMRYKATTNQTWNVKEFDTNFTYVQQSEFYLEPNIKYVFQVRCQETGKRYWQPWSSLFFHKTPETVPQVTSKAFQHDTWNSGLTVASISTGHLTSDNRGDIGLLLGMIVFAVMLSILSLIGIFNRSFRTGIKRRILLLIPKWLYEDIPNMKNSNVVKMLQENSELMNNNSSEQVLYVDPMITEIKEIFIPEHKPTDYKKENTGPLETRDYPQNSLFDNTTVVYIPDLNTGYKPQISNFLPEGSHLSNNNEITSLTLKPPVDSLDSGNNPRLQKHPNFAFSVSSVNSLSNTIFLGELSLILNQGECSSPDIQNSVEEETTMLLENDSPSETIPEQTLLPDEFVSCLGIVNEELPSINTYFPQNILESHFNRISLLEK
Nature of the assay: flow cytometry, HEK-IL-23R cells (Expt E).

In assay [9] the target is T4, rat IL-23R extracellular domain (ECD) protein (rat).
T4 construct: also called rat IL-23R ECD; F1LX96 amino acids 24-354
T4 chain: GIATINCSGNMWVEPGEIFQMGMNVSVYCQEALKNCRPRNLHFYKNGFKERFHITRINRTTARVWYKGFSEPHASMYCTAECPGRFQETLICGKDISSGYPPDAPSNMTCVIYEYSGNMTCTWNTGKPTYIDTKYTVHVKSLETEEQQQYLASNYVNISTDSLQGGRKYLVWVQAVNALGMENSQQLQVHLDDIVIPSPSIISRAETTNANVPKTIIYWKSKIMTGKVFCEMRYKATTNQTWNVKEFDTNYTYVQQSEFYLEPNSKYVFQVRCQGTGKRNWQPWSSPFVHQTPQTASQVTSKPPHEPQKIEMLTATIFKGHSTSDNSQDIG
Briefly: SPR Biacore 8K, supernatant. The method, boiled down: as §2

Assay [10] concerns the target T5, human IL-23R extracellular domain (ECD) protein (human, UniProt Q5VWK5 24-355).
T5 construct: Recombinant ECD; also called hu IL-23R ECD
T5 sequence: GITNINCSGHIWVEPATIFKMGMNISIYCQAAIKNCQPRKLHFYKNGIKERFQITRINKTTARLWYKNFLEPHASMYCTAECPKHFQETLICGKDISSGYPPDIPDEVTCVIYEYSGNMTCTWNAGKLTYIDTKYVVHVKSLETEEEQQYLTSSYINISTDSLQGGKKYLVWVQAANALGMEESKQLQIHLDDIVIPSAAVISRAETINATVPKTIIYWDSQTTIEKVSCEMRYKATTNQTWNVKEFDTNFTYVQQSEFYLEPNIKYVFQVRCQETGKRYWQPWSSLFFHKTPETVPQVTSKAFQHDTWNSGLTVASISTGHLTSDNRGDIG
Nature of the assay: column 'Affinity to hu IL-23R ECD' (summary of SPR data).

B1: I23RB4 (antibody, mouse IgG2a, kappa, V domains shown)
VH: QVQLVQSGAEVKKPGSSVKVSCKASGGTFKTYAIHWVRQAPGQGLEWMGWIIPIFGTANYAQKFQGRVTITADESTSTAYMELSSLRSEDTAVYYCARDGGYYGSRYYPRSYYFDYWGQGTLVTVSS
VL: EIVLTQSPATLSLSPGERATLSCRASQSVSSYLAWYQQKPGQAPRLLIYDASNRATGIPARFSGSGSGTDFTLTISSLEPEDFAVYYCQQRSNWPLTFGQGTKVEIKR
notes: phage display; human V, mouse IgG2a/kappa
With B1, the “MFI (6.4 nM)” value in assay [1] was 225000 MFI. Besides, the “MFI @ 20 nM” value in assay [2] came to 4390 MFI. The figures for the EC50 in assay [3] and in assay [4] were 0.04 nM and 0.03 nM, respectively. In addition, the “MFI @ 0.7 nM” value in [5] stood at 2990 MFI.

B2: I23RB71 (antibody, mouse IgG2a, kappa, V domains shown)
VH: DVQLQESGPDLVKPSQSLSLTCTVTDYSITRGYNWHWIRQFPGNKLEWMGYIHYSGSTNYNPSLKSRISITRDTSKNQFFLQLNSVTTEDTATYYCARQYGLKAMDYWGQGTSVTVSS
VL: DIVMTQSHKFMSTSVGDRVSITCKASQDVITAVAWYQQKPGQSPKLLIYSASYRYTGVPDRFTGSGSGTDFTFTISSVQAEDLAVYFCQQHFGTPYTFGSGTKLEMKR
notes: mouse immunization; mouse IgG2a/kappa
For the molecule B2, in [6], the Kd came to 0.129 nM, the koff was found to be 4.63e-05 s⁻¹ and the kon came to 358000 M⁻¹ s⁻¹. For the same molecule, in [7], the Kd was 0.328 nM, the koff came to 0.000231 s⁻¹ and the kon was 704000 M⁻¹ s⁻¹. The molecule further displayed an EC50 in [8] of at most 9.7 nM. Besides, the binding result in [9] is “no binding (tested: 500 nM)”.

B3: I23RB7 (antibody, mouse IgG2a, kappa, V domains shown)
VH: QIQLVQSGPELKKPGETVKISCKASGYTFTTYGMSWVKQAPGKGLKWMGWINTYSGVPTYADDFKGRFAFSLETSASTAYLQINNLKNEDTATYYCARRDRYGYVAGAFAYWGQGTLVTVSS
VL: QIVLTQSPAIMSASPGEKVTMTCSASSSVSYMYWYQQKPGSSPRLLIYDTSNLASGVPVRFSGSGSGTSYSLTISRMEAEDAATYYCQQWSSYPWTFGGGTKLEIKR
notes: phage display; mouse V, mouse IgG2a/kappa
For the molecule B3, the “MFI (6.4 nM)” value in assay [1] came out at 172000 MFI. The “MFI @ 20 nM” value in assay [2] amounted to 4320 MFI. The values for the EC50 in assay [3] and in [4] were 0.07 nM and 0.1 nM, respectively. The molecule further had a Kd in assay [10] of 1 nM. Further, the “MFI @ 0.7 nM” value in assay [5] was 2230 MFI.
